Biological target: T1, hSMUG1 WT (Homo sapiens, UniProt Q53HV7 1-270)
T1 sequence: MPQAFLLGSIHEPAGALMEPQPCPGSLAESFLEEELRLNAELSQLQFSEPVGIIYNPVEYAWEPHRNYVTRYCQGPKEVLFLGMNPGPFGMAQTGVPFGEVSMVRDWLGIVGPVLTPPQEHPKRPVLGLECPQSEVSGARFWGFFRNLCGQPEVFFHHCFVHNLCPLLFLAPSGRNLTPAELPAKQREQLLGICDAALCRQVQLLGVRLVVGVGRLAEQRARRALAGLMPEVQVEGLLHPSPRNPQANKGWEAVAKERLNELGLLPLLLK
Experiment: EMSA

B1: T:A (T141A) (dsDNA)
DNA 1: CATAAAGTGTAAAGCCTGG
DNA 2: CCAGGCTTTACACTTTATG
binding result: no binding
